Earlier results on three molecules are cited in US20060193824A1, “Methods for the treatment of infectious and inflammatory airway diseases” (priority 2005, published 2006).

Data set [1] has as its system respiratory epithelial cells.
Data set [2] has as its system mucus production.
In data set [3] the test system is inflammation.

B1: Human neutrophil elastase: Human neutrophil elastase (protein, UniProt P08246 30-267, looked up)
Neutrophil elastase: IVGGRRARPHAWPFMVSLQLRGGHFCGATLIAPNFVMSAAHCVANVNVRAVRVVLGAHNLSRREPTRQVFAVQRIFENGYDPVNLLNDIVILQLNGSATINANVQVAQLPAQGRRLGNGVQCLAMGWGLLGRNRGIASVLQELNVTVVTSLCRRSNVCTLVRGRQAGVCFGDSGSPLVCNGLIHGIASFVRGGCASGLYPDAFAPVAQFVNWIDSIIQRSEDNPCPHPRDPDPASRTH
As to B1, in data set [1], the MUC5AC levels result is “increase MUC5AC levels”.

B2: IL-4: cytokine obtainable from R & D Systems (protein, UniProt P05112 25-153, looked up)
Interleukin-4: HKCDITLQEIIKTLNSLTEQKTLCTELTVTDIFAASKNTTEKETFCRAATVLRQFYSHHEKDTRCLGATAQQFHRHKQLIRFLKRLDRNLWGLAGLNSCPVKEANQSTLENFLERLKTIMREKYSKCSS
B2: the mucus production result in data set [2] is “modulates mucus production”.

B3: IL-10: cytokine obtainable from R & D systems (protein, UniProt P22301 19-178, looked up)
Interleukin-10: SPGQGTQSENSCTHFPGNLPNMLRDLRDAFSRVKTFFQMKDQLDNLLLKESLLEDFKGYLGCQALSEMIQFYLEEVMPQAENQDPDIKAHVNSLGENLKTLRLRLRRCHRFLPCENKSKAVEQVKNAFNKLQEKGIYKAMSEFDIFINYIEAYMTMKIRN
Consider B3, for which the inflammation entry in data set [3] is on record as “attenuates excessive inflammation”.
